Reference: patent publication US6355473

How the values were obtained:
Test in all cases: cell-based or functional assay
[1] = target: human melanocortin receptor 4 (hMCR4), native form (human) (UniProt P32245)
[2] = target: All the receptor forms tested (hNocR, Ste2-hNocR, Inv-hNocR, αF-hNocR) in the stp22 strains
αF-hSSTR3 (yeast; human) = target: αF-hSSTR3 (yeast; human)
Sequence of αF-hSSTR3 (yeast; human) (P01149 other isoform, or with tags, fused parts or gaps): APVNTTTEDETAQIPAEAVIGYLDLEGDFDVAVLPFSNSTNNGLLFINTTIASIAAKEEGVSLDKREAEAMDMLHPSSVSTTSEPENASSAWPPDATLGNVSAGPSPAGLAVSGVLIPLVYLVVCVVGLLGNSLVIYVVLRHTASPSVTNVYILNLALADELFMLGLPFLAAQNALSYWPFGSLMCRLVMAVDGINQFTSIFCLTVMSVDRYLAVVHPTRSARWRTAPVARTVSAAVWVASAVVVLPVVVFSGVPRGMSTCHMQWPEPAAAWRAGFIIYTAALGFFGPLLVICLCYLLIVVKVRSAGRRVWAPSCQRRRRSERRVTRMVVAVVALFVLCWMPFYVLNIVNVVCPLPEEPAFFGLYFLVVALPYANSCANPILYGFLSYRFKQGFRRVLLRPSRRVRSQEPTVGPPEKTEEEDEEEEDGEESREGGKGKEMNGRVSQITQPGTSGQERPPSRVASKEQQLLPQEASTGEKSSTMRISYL

Sequence of UniProt P32245 (P32245 whole entry): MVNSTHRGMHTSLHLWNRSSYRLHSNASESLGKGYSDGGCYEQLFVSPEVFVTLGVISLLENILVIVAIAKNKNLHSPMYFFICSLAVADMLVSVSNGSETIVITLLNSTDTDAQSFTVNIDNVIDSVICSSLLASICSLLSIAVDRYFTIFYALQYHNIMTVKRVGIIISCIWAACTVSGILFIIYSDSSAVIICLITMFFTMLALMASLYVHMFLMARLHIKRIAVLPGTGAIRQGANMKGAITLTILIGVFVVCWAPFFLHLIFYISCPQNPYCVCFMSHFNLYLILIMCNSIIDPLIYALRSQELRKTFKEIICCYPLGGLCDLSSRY

Molecule NDP-α-MSH (peptide) has a Specific ligand-induced levels of β-galactosidase activity (FUS1-lacZ), stp22 strain compared with wild type [1] of 2 fold.

FGGFTGARKSARKLANQ (peptide, UniProt Q13519 130-146, looked up) [nociceptin] showed a maximal increase in the levels of β-galactosidase activity (FUS1-lacZ induction), stp22 strains [2] of 10 to 40 fold.

AGCKNFFWKTFTSC (peptide, UniProt P61278 103-116, looked up) [Somatostatin-14] gave a decrease of EC50 of FUS1-lacZ induction, stp22 strain compared with wild type (αF-hSSTR3 (yeast; human)) of 50% and a levels of FUS1-lacZ induction (β-galactosidase activity), stp22 strain compared with wild type (αF-hSSTR3 (yeast; human)) of 2 fold.
